Target: T1, N-terminal DNA-binding domain (2-241) of S. pombe Fep1, 6xHis-tagged (S. pombe) (UniProt Q10134)
T1 sequence: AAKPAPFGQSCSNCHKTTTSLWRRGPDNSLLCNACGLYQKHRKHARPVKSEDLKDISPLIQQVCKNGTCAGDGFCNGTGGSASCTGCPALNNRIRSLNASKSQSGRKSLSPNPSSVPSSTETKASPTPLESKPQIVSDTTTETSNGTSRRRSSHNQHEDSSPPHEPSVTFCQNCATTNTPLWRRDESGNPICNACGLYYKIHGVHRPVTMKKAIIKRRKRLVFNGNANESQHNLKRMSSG

B1: Schizosaccharomyces pombe monothiol glutaredoxin Grx4, full length, 6xHis-tagged (natural protein)
chain: MSVEITFVEQFQEILQNGKEQIILLNFYAPWAAPCKQMNQVFDQFAKDTKNAVFLKIEAEKFSDIAESFDVNAVPLFVLIHGAKVLARISGANPQKLKAAIDEYIQPLISQISSTNASVETQVNSVQTTNTTSNTSKAPNGLDSELNERLSTLTNAHNVMLFLKGTPSEPACGFSRKLVGLLREQNVQYGFFNILADDSVRQGLKVFSDWPTFPQLYIKGEFVGGLDIVSEMIENGELQEMLPN
Kex of [2Fe-2S] cluster transfer from [2Fe-2S],Zn-Fep1-DBD to apo-Grx4 (CD-monitored titration, 5 mM GSH): 5.3
Kex of [2Fe-2S] cluster transfer from [2Fe-2S],Zn-Fep1-DBD to apo-Grx4 added as a 1:1 mixture with apo-Fra2 (CD-monitored titration, 5 mM GSH): 36.1

— article PMC10704371
